Data from PMC12373997, “Conserved function of the HAUS6 calponin homology domain in anchoring augmin for microtubule branching” (Nature Communications, 2025).

Biological target: T1, Taxol-stabilized microtubules polymerised from purified porcine brain tubulin (porcine, UniProt P02550 1-451; P02554 1-439)
T1 construct: P81947 was used only for the MD model; Q6B856 was used only for the MD model; Polymer of α/β-tubulin heterodimers (13- and 14-protofilament MTs in cryo-EM); brain tubulin is probably a mix of isotypes; Concentrations are α/β-tubulin heterodimer molarity; also called MTs; MT; source: tubulin purified from porcine brain; polymerised in vitro with GTP and paclitaxel
Assay: co-sedimentation; tubulin co-sedimentation: taxol-stabilized MTs (varied, α/β-tubulin heterodimer molarity) with 1 µM purified N-clamp, 0.25 mg/ml BSA, BRB80-MT buffer (80 mM PIPES, 1 mM MgCl2, 1 mM EGTA, 12.5% glycerol, pH 6.8), 20 min at room temperature, 200,000 g 10 min 27 °C; SDS-PAGE densitometry of pellet; apparent Kd from a quadratic fit
Settings: both partners purified

Kd: 2900 nM
B1: D. melanogaster augmin N-clamp with Dgt4 lacking its N-terminal extension (complex)
chain 1: MSDAVDKMLAGMAANRQTMNRQLAKIDEIMERSNNTLLHIESNSKAFSQNVALSETQKMYNLRPEAEMTLSKILENFKLLMSSSDQREETYSALEGCLAYRHRVEHLGSSVRKLVALYDTVGQMKNSQEEQYASEDSP
chain 2: MDRTIIAPWKAEEKEQSEKLHRKLQGLALVHPLPDELRKLIAWDMFLKPNQVAFVHVMHYLFRLLDPAEFKRRFFWPITDKKSEANFRSSTVEYLKHLNEKHQLHWANIKSYLVVMPGGMRFINFLLEFVGFVIQELIKQREKSLGLEAGTPNVSAKVMARQNAVMKEYASSYVVNLEENTALLRDKTQKIRRLMADLSADMGVPEEQLADDGFLDEFEATAALGVERVITQPTERKFDLEASLCGLKEAIDLFQVKQAENNQSKEAVEKALRGMRVLFD
chain 3: METNVDFSSISSKLYRKYAQHVRNLKDVCVSKTVMKPGAFFDSLQQMMEEEAAATTPPRDLSSVADYAELFKTLEEYPANLQKMPKKRELQRTNSTLLRGADESVAMGINTSNVSLSLTRLEEQRSAVDVYNDFKGFQRKLAKIYDEAAALDTTESIYKQKLTQLHGFAQQLEKLMPTGGESPPDAFTSEQ
chain 4: MDDIQYLLHLEAMRRFQEDSRNVKRQVEEQVRIWLDAKCEYQRDFGRLARLLKCGALQAAVDAHRVSDVNQVDQAAKDIASLRSKLGS
modifications: Dgt4-deltaNT start (MDDIQY) read from the printed N-del primer, Dgt4 end from 9RPD entity 1; Dgt6 from 9RPD entity 2; Msd5 end is estimated from the length of the 9RPD fusion entity; Msd1 is assumed …
